Target: integrin alpha2beta1 (human (endogenous in cord blood derived megakaryocytes)) (UniProt P17301)
Chain of UniProt P17301 (P17301 30-1181, chain 1 of 2): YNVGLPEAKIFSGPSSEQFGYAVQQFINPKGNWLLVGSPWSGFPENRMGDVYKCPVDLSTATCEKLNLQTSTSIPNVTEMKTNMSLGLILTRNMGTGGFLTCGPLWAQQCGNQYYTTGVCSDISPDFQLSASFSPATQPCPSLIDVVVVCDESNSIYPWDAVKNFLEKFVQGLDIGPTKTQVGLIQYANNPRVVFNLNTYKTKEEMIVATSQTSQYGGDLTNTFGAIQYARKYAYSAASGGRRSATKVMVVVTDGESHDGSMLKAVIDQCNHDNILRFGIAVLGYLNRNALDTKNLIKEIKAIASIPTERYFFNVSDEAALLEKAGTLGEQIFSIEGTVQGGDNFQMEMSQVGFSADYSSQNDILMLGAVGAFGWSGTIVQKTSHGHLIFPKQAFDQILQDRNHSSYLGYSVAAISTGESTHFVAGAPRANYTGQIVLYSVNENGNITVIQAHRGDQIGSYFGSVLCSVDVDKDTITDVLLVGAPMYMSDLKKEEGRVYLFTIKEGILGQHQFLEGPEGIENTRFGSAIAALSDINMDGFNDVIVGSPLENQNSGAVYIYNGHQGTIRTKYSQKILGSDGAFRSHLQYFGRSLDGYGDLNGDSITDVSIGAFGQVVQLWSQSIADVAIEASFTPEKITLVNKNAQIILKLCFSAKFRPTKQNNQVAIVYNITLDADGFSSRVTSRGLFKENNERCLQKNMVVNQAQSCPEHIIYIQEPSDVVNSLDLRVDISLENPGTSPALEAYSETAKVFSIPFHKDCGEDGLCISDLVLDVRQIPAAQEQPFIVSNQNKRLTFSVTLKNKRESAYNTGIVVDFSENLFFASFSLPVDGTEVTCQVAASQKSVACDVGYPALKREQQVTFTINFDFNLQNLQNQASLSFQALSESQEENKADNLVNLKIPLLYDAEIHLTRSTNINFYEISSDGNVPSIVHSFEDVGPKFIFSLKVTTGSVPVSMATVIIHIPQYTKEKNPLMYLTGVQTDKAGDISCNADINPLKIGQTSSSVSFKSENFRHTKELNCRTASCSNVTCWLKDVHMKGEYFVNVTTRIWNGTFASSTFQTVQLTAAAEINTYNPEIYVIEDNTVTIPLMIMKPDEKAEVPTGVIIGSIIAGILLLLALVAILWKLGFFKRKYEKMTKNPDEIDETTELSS
Chain of UniProt P17301 (P05556 21-798, chain 2 of 2, further chain): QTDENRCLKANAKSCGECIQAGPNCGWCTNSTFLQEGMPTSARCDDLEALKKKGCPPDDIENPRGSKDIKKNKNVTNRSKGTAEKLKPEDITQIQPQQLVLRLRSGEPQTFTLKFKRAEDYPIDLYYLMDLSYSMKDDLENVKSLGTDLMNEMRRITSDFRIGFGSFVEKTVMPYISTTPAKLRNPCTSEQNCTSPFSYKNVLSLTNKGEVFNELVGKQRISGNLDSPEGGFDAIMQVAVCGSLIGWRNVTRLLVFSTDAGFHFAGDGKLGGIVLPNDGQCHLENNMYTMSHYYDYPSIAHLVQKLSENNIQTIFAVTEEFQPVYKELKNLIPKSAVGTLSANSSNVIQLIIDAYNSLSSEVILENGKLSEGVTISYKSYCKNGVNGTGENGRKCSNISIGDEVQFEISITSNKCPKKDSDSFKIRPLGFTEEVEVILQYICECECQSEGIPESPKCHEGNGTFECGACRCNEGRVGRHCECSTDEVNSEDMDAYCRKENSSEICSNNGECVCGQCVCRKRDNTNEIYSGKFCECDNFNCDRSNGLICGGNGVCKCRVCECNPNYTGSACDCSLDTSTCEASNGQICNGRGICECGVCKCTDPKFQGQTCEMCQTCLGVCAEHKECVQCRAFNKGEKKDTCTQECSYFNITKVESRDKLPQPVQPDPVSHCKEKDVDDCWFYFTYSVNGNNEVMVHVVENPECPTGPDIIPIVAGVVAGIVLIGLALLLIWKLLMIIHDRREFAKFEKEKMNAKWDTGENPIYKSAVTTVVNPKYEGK

adhesion of mature megakaryocytes to hOSTs (day 18) after pre-incubation with 30 µg/mL anti-integrin alpha2 monoclonal antibody P1E6, against unrelated IgG: 30%
Substance: type I collagen (from UniProt P02452 162-1218; P08123 80-1119) (complex)
